Experiments:
[1] = molecular target: recombinant EsGLUT4 intracellular region (between TM6 and TM7) (Eriocheir sinensis); assay: BLI; ForteBio Octet RED96; biotinylated rEsGLUT4 region (50 µg/ml) immobilised on streptavidin (SA) sensors; four serial concentrations of CHHBP, highest 1 µM (intracellular region) and 0.38 µM (extracellular region); association 300 s, dissociation 600 s; room temperature; physiological saline for crab
[2] = molecular target: recombinant EsGLUT4 extracellular region (between TM1 and TM2) (Eriocheir sinensis); assay: as above

Kd [1]: 6.81 nM | Kd [2]: 2.52 nM
Substance: recombinant CHH binding protein (CHHBP), an E. sinensis flotillin-like protein (natural protein)

From paper PMC5612244
